Patent US20180079819A1 (IMMUNOGEN, published 2018)
“And” between values parts separate entries of the source, which are not always exact repeats. Identical values can stand only once.

T1: IL3Rα (1-100) chimeric receptor protein: IL3Rα residues 1-100 fused to GMRα residues 115-325, His-tagged (human, UniProt P15509 115-325)
T1 construct: range 115-325; also called IL-3Rα N-terminal domain construct
T1 sequence: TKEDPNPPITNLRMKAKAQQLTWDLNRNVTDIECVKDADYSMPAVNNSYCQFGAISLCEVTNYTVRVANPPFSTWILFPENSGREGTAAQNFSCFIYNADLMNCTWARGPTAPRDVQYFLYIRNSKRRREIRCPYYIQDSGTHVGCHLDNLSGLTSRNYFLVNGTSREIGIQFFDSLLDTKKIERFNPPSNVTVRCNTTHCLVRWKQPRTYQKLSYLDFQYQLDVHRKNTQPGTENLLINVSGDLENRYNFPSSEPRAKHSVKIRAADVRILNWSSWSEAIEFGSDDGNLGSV

T2: extracellular domain of CD123/IL-3Rα (residues 1-306), histidine tagged (human, UniProt P26951 19-306)
T2 construct: Expressed in HEK 293T cells, purified on Ni Sepharose, coated on ELISA plates; also called wild type IL-3Rα; wild-type IL-3Rα construct
T2 sequence: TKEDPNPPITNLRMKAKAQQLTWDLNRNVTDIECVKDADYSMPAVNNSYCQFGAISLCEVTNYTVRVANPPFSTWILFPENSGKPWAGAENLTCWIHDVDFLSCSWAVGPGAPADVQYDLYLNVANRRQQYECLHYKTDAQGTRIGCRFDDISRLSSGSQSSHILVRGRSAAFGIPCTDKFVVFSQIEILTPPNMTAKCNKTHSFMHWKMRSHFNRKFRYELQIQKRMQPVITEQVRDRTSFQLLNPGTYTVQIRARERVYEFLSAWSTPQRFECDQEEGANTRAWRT


Tests used:
[1] = target: T3, human CD123 (IL-3Rα, interleukin-3 receptor alpha chain) (human, UniProt P26951 19-378); assay: flow cytometry on TF-1 cells; EC50 of the binding curve taken as apparent Kd
T3 construct: CD123 on human cell lines (TF-1, HNT-34, MOLM-13 and other AML, B-ALL, CML and NHL lines) or on 300-19 cells stably expressing human CD123; also called CD123 antigen; human CD123 antigen

[2] = target: T3, human CD123 (IL-3Rα, interleukin-3 …); assay: cell-based or functional assay
[3] = target: T3, human CD123 (IL-3Rα, interleukin-3 …); assay: flow cytometry on HNT-34 cells; apparent Kd
[4] = target: T3, human CD123 (IL-3Rα, interleukin-3 …); assay: flow cytometry on HNT-34 cells; EC50 of the binding curve taken as apparent Kd
[5] = target: T3, human CD123 (IL-3Rα, interleukin-3 …); assay: flow cytometry on MOLM-13 cells; apparent Kd; MOLM-13 cells
[6] = target: T3, human CD123 (IL-3Rα, interleukin-3 …); assay: flow cytometry on HNT-34 cells, against muCD123-6 of Example 5
[7] = target: T3, human CD123 (IL-3Rα, interleukin-3 …); assay: flow cytometry on HNT-34 cells, against muCD123-14 of Example 5
[8] = target: T1, IL3Rα (1-100) chimeric receptor …; assay: ELISA on plate-coated His-tagged protein, A450
Procedure: (§1) The chimeric and humanized anti-IL3Rα antibodies were tested in enzyme-linked immunosorbent assay (ELISA) format for binding to the IL-3Rαproteins described above. Briefly, each His-tagged IL-3Rαprotein purified by Ni Sepharose excel chromatography was diluted to 1 ng/mL in 50 mM sodium bicarbonate buffer pH 9.6, and 100 μL was added to each well. After a 16 hr incubation at 4° C., the plates were washed with Tris-buffered saline with 0.1% Tween-20 (TBST), then blocked with 200 μL blocking buffer (TBS with 1% BSA). Next, 100 μL of primary antibody, serially diluted in blocking buffer, was added in duplicate to the ELISA wells and incubated at room temperature for 1 hr. The plates were then washed 3 times with TBST before adding 100 μL of anti-human IgG (H+L)-HRP (Jackson ImmunoResearch) to each well. Once again the plates were incubated for 1 hr at room temperature followed by three washes with TBST. Finally, 100 μL of TMB one component HRP microwell substrate (Surmodics) was added to each well and incubated for 5 min. The reaction was stopped by adding 100 μL stopping solution (Surmodics) and absorbances were read at 450 nm.
(§2) Binding of the CD123 antibodies to the chimeric IL-3Rαproteins was evaluated in comparison to the wild type IL-3Rα.

[9] = target: T2, extracellular domain of CD123/IL-3Rα …; assay: ELISA on plate-coated His-tagged protein, A450
Procedure: as §1, §2

Binder | Kd [1] [nM] | IC50, inhibition of IL-3 dependent proliferation of TF-1 cells [2] | Kd [3] | Kd [4] [nM] | IC50, inhibition of IL3-dependent proliferation of TF-1 cells [2] [nM] | Kd [5] [nM] | fold difference of Kd from the murine counterpart [6] [fold] | fold difference of Kd from the murine counterpart [7] [fold] | EC50 [8] [nM] | EC50 [9] [nM]
7G3 (antibody, V domains shown) VH: EVQLQQSGPELVKPGASVKMSCKASGYTFTDYYMKWVKQSHGKSLEWIGDIIPSNGATFYNQKFKGKATLTVDRSSSTAYMHLNSLTSEDSAVYYCTRSHLLRASWFAYWGQGTLVTVSA VL: DFVMTQSPSSLTVTAGEKVTMSCKSSQSLLNSGNQKNYLTWYLQKPGQPPKLLIYWASTRESGVPDRFTGSGSGTDFTLTISSVQAEDLAVYYCQNDYSYPYTFGGGTKLEIKR | 0.9 | 0.33 nM and 0.2 nM | ~2 nM | 2 | – | – | – | – | – | –
chCD123-6 (antibody, human IgG1, V domains shown, also called chimeric CD123-6 antibody) VH: EFQLQQSGPELVKPGASVKMSCKASGYIFTSSIMHWMKQKPGQGLEWIGYIKPYNDGTKYNEKFKGKATLTSDKSSSTANMELNSLTSEDSAVYYCAREGGNDYYDTMDYWGQGTSVTVSS VL: DIKMTQSPSSMYASLGERVTITCKASQDINSYLSWFQQKPGKSPKTLIYRVNRLVDGVPSRFSGSGSGQDYSLTISSLEYEDMGIYYCLQYDAFPYTFGGGTKLEIKR | – | 0.02 nM | 0.04 nM and ~0.06 nM | – | 0.03 | 0.08 | ≤ 2.5 | – | – | –
chCD123-14 (antibody, V domains shown, also called chimeric CD123-14 antibody) VH: EVKLVESGGDLVKPGGSLKLSCAASGFTFSNYAMSWVRQNSEKRLEWVATINSGGSFTYYPDSVKGRFTISRDNAKDSLYLQMSSLNSEDTAMYYCARQSEAYYGYDKRTWFAYWGQGTLVTVSS VL: DILLTQSPAILSVSPGTRVSFSCRASQSVGTSIHWYQQRPNGFPRLLIKYASESISGIPSRFSGSGSGTDFTLNINSVESEDIADYYCQQSKSWPLTFGAGTKLELKR | – | – | 0.2 nM | – | 0.05 | – | – | ≤ 2.5 | 0.0479 | 0.0655
